The record followed here is US7537764.

B1: SC04-374 (scFv)
scFv: QVTLKESGPTLVKPTQTLTLTCTFSGFSLSTSGVGVGWIRQPPGKALEWLAVIYWNDDKLYRPSLKSRLTITKDTSKNQVVLTMTKMDPVDTATYYCAHRHRYYDISGYYRLFSDAFDIWGQGTMVTVSSGTGGSGGTGSGTGGSTQSVVTQPPSVSGAPGQRVTISCTGSSSNIGAGYDVHWYQQLPGTAPKLLIYGNSNRPSGVPDRFSGSKSGTSASLAITGLQAEDEADYYCQSYDSSLSGSVFGGGTKLTVLG
B2: SC04-361 (scFv)
scFv: EVQLVQSGAEVKKPGESLKISCKASGFSFSTYWIGWVRQMPGKGLEWMGIIYPADSDTRYSPSFQGQVTISADKSISTAYLQWSSLKASDTAMYYCARLRGPYYDFWNGYRETHDAFNVWGQGTMVTVSSGTGGSGGTGSGTGGSTDVVMTQSPDSLAVSLGERATINCKSSQNILDNSDNKNFLAWYQQKPGQPPKLLIYWASARESGVPDRFSGSGSGTDFTLTISSLQAEDVALYYCQQYYNTPITFGQGTRLEIKR
B3: SC04-353 (scFv)
scFv: EVQLVQSGGGVVQPGRSLRLSCAASGFTFSNYAMHWVRQAPGKGLEWVAVISYDGGNKYYADSVKGRFTMSRDNSKNTLYLQMNSLRAEDTAVYYCARDFWSGYSMVDSYYYYMDVWGKGTTVTVSSGTGGSGGTGSGTGGSTETTLTQSPGTLSLSPGERATLSCRASQSVSNTFLAWYQQKPGQAPRLLIYGASSRATGIPDRFSGSGSGTDFTLTISRLEPEDFAAYYCQQYGSSLTFGPGTKVDIKR

The assay addresses whole inactivated rabies virus (rabies virus). The experiment in a line: phage ELISA on coated whole inactivated rabies virus.
As to B1, the OD 492 nm turned out to be 0.056 OD.

B2 registered an OD 492 nm of 0.059 OD.

B3 came in with an OD 492 nm of 0.057 OD.
